Assay results as given in article PMC5704914 (Biochemistry, 2017).

B1: fluorescein-labeled α11.2 IQ domain peptide AAs 1644-1668, K1647A (peptide)
peptide: not shown
modifications: fluorescein covalently linked to the N-terminal amino group
B2: fluorescein-labeled α11.2 IQ domain peptide AAs 1644-1668, Y1649A (peptide)
peptide: not shown
modifications: fluorescein covalently linked to the N-terminal amino group
B3: fluorescein-labeled α11.2 IQ domain peptide AAs 1644-1668, F1648A (peptide)
peptide: not shown
modifications: fluorescein covalently linked to the N-terminal amino group
B4: fluorescein-labeled α11.2 IQ domain peptide AAs 1644-1668, I1654A (peptide)
peptide: not shown
modifications: fluorescein covalently linked to the N-terminal amino group
B5: fluorescein-labeled α11.2 IQ domain peptide AAs 1644-1668, Q1655A (peptide)
peptide: not shown
modifications: fluorescein covalently linked to the N-terminal amino group

Target: apo-calmodulin (UniProt P0DP23 1-149)
Test: fluorescence polarisation

Row | Binder | Kd
1 | B1 | 44.2 µM
2 | B2 | 61.9 µM
3 | B3 | 32.4 µM
4 | B4 | 141 µM
5 | B5 | 22.3 µM
